Experimental data taken from the supplement of paper PMC9170038.

Test system: MS2 coat protein
Assay: apparent KD of MS2 coat protein; designed switch direction (-1 OFF switch, 1 ON switch): -1; higher = weaker reporter binding
Summary of the method: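 Stalled E. coli RNA polymerase transcribed designed RNA switches on Illumina chips, which were then titrated with SNAP-549-labelled MS2 coat protein, doubling from 0.7 or 1.5 nM to 3 µM. Steps lasted from 0.8–1.5 h at the lowest concentration to 10–20 min at the highest. The apparent KD is each design's median over clusters of curve-fitted normalised fluorescence.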

[1] = input ligand: microRNA oligo, concentration not stated
[2] = Eterna round: R95, input ligand: FMN 200 uM
[3] = Eterna round: R95, input ligand: microRNA oligo, concentration not stated
[4] = Eterna round: R95, input ligand: none

## GUUUACAAGCUAAGAUCCUACAUGAGGAUCACCCAUGUGGUCCGGUGACGUGAGUCACCGGACUUAGCUCGUCUUGA [salish99_S_TOV1_R5_092] (Eterna round: R97, puzzle: Sensor, turn-off variant 1)
Input ligand: FMN 200 uM
  apparent KD of MS2 coat protein: 32.4 nM
Input ligand: none
  apparent KD of MS2 coat protein: 31 nM

## GUUUAGCAAGCGAGAUCCCACAUGAGGAUCACCCAUGUGCAUCCAGAAUUACUGGGUGCAAAAGCUCGUCUUAUAUG [mod-El /newdang-1] (Eterna round: R97, puzzle: Sensor, turn-off variant 1)
Input ligand: FMN 200 uM
  apparent KD of MS2 coat protein: 71.8 nM
Input ligand: none
  apparent KD of MS2 coat protein: 71.8 nM

## GUUUCACAUGAGGAUCACCCAUGUGAGGAUAUCCAUUUGUUAACCGUAGUUAAUAGAUGGAGAAGGCGCGUGAU [JRxlusion 6 - Jieux - Exclusion 1] (Eterna round: R97, puzzle: Exclusion 1)
Input ligand: FMN 200 uM
  apparent KD of MS2 coat protein: 66.6 nM
Input ligand: none
  apparent KD of MS2 coat protein: 62.9 nM

## GUUUCACAUGAGGAUCACCCAUGUGAGGAUAUGUUUUUAAAAGCAAUAGUUUUUGAAAACAGAAGGCGCGUGAU [JR_Exc1_Sub008] (Eterna round: R97, puzzle: Exclusion 1)
Input ligand: FMN 200 uM
  apparent KD of MS2 coat protein: 71.6 nM
Input ligand: none
  apparent KD of MS2 coat protein: 60.5 nM

## GUUUCGAGACGGAGAUCCGACAUGAGGAUCACCCAUGUCUCGCAAGCUUUUUGCUCGUCUUAUACUCCUCUGUUCUC [Elimod 46 - Jieux - Sensor, turn-off variant 1] (Eterna round: R97, puzzle: Sensor, turn-off variant 1)
Input ligand: FMN 200 uM
  apparent KD of MS2 coat protein: 20.9 nM
Input ligand: none
  apparent KD of MS2 coat protein: 21.9 nM

## GUUUUAUAUGAAGGAUAUACUUAACAUGAGGAUCACCCAUGUGGUGUUGUGAGUGAGUGAGUUUAGUAGAAGGUCAAGUAUUUU [JMF's solution 56] (Eterna round: R96, puzzle: Exclusion NG 2)
Input ligand: FMN 200 uM
  apparent KD of MS2 coat protein: 335 nM
[1]
  apparent KD of MS2 coat protein: 231 nM
Input ligand: none
  apparent KD of MS2 coat protein: 319 nM

## GUUUUAUAUGAAGGAUAUACUUAACAUGAGGAUCACCCAUGUGGUGUUGUGAGUGAGUGAGUUUAGUAGAAGGUCAAUUAUUUU [JMF's solution 33] (Eterna round: R96, puzzle: Exclusion NG 2)
Input ligand: FMN 200 uM
  apparent KD of MS2 coat protein: 409 nM
[1]
  apparent KD of MS2 coat protein: 174 nM
Input ligand: none
  apparent KD of MS2 coat protein: 184 nM

## GUUUUCAGACGGAGAUCCUACAUGAGGAUCACCCAUGUCUCACAAGCUAAUUGCUCGUCUUAUUCUCCUCUGUUCUC [Elimod 40 - Jieux - Sensor, turn-off variant 1] (Eterna round: R97, puzzle: Sensor, turn-off variant 1)
Input ligand: FMN 200 uM
  apparent KD of MS2 coat protein: 21.8 nM
Input ligand: none
  apparent KD of MS2 coat protein: 24.3 nM

## GUUUUGGGAGGAUAUAUGUGGAUAAUUUUUAUAUGAAAUUUACAUGAGGAUCACCCAUGUAGAAGGUCUAGAGC [-18.5, -15.1 kcal, 31% A] (Eterna round: R97, puzzle: Exclusion 2)
Input ligand: FMN 200 uM
  apparent KD of MS2 coat protein: 476 nM
Input ligand: none
  apparent KD of MS2 coat protein: 261 nM

## UAAACAUGGAUAUAACAGUACAUGAGGAUCACCCAUGUUAAUAUGAUAAAUUAUAACAAGUUUUUUUGUCGUCUUAA [Feeding at the Trough] (Eterna round: R97, puzzle: Sensor, turn-off variant 1)
Input ligand: FMN 200 uM
  apparent KD of MS2 coat protein: 47 nM
Input ligand: none
  apparent KD of MS2 coat protein: 190 nM

## UAAAUGUCAGGAUAUUGUUAAUUUAGUUGUUUGUAUUAGUUCGAGAAGGGACAUGAGGAUCACCCAUGUUAUUU [Ex4 #55] (Eterna round: R97, puzzle: Exclusion 4)
Input ligand: FMN 200 uM
  apparent KD of MS2 coat protein: 33.6 nM
Input ligand: none
  apparent KD of MS2 coat protein: 31.9 nM

## UAACUAACUCCUCGGAGCAACAUGAGGAUCACCCAUGUUAUGAACAUUCGGUGUAACAGGAUGUUUGCUCGUCUGGA [Eternabot (Original) Solution 22] (Eterna round: R97, puzzle: Sensor, turn-off variant 1)
Input ligand: FMN 200 uM
  apparent KD of MS2 coat protein: 266 nM
Input ligand: none
  apparent KD of MS2 coat protein: 259 nM

## UAACUUUUUGUAAGGAUAUCGGUCCCAAGGGACAACGAGAAGGUACAUGAGGAUCACCCAUGUGAAAUAAGAAU [Mod of Zala 20 - Jieux - Brourd's Mod of Exclusion 4] (Eterna round: R97, puzzle: Brourd's mod of Exclusion 4)
Input ligand: FMN 200 uM
  apparent KD of MS2 coat protein: 154 nM
Input ligand: none
  apparent KD of MS2 coat protein: 22.7 nM

## UAAGCAAGCGAAAGAUCCCACAUGAGGAUCACCCAUGUGCUCGUCUUAUAAGGUACUGUGACGAAAGUCACGGUACC [Sensor 3, v1 - 91 v22] (Eterna round: R97, puzzle: Sensor, turn-off variant 1)
Input ligand: FMN 200 uM
  apparent KD of MS2 coat protein: 140 nM
Input ligand: none
  apparent KD of MS2 coat protein: 128 nM

## UAAGGUGGUACCAUGAACAUGAGGAUCACCCAUGUACCUUAGAAGGAUAUCGCGACGUGUACGCGCGAGAAGGUCUACAACGUA [Eternabot solution 35] (Eterna round: R96, puzzle: Exclusion NG 3)
Input ligand: FMN 200 uM
  apparent KD of MS2 coat protein: 162 nM
[1]
  apparent KD of MS2 coat protein: 70.1 nM
Input ligand: none
  apparent KD of MS2 coat protein: 77.5 nM

## UAAUAACAAGCAGGAUCCUACAUGAGGAUCACCCAUGUGCUCGUCUUAUAAAGUACUAUCACGAAAGUGAUAGUACA [Mat - Sensor v3 - turn-off var 1 - Eli Mod - D70] (puzzle: Sensor v3, turn-off variant 1)
[2]
  apparent KD of MS2 coat protein: 272 nM
[3]
  apparent KD of MS2 coat protein: 148 nM
[4]
  apparent KD of MS2 coat protein: 315 nM

## UAAUAAUAGCAAGGAUAUAGUUAUUAUAAUAUACUAGAAGGUGCACAUGAGGAUCACCCAUGUUUUAUAAUUUGUAAUUUAAAU [3rd something] (Eterna round: R96, puzzle: Exclusion NG 1)
[1]
  apparent KD of MS2 coat protein: 20.9 nM

## UAAUACAAGCAAAGAUCUUACAUGAGGAUCACCCAUGUGCUCGUCUUAUAAAGUACUAUCACGAAAGUGAUAGUACA [Mat - Sensor v3 - turn-off var 1 - Eli Mod - D93] (puzzle: Sensor v3, turn-off variant 1)
[2]
  apparent KD of MS2 coat protein: 20.4 nM
[3]
  apparent KD of MS2 coat protein: 181 nM
[4]
  apparent KD of MS2 coat protein: 31.9 nM

## UAAUACAAGUAAAGAUCCUACAUGAGGAUCACCCAUGUGCUCGUCUUGUAAAGUACUAUCACGAAAGUGAUAGUACA [Mat - Sensor v3 - turn-off var 1 - Eli Mod - D85] (puzzle: Sensor v3, turn-off variant 1)
[2]
  apparent KD of MS2 coat protein: 41 nM
[3]
  apparent KD of MS2 coat protein: 196 nM
[4]
  apparent KD of MS2 coat protein: 53.1 nM

## UAAUACAUCUAUGGGAGUAACAUGAGGAUCACCCAUGUAUGUCUUGUUUUUUGUUCGUCAAAGACUUUCUGAUCAGU [JR_SV3TOV1_Sub030] (puzzle: Sensor v3, turn-off variant 1)
[2]
  apparent KD of MS2 coat protein: 76.7 nM
[3]
  apparent KD of MS2 coat protein: 191 nM
[4]
  apparent KD of MS2 coat protein: 83.2 nM

## UAAUUAAAUGUAGGAUAUCUGCACGUUUAGUGCAGAGAAGGACAUGAGGAUCACCCAUGUAGAUCAAAUUAAAUUAAUUUAAUU [ENG1/5-D2] (Eterna round: R96, puzzle: Exclusion NG 1)
Input ligand: FMN 200 uM
  apparent KD of MS2 coat protein: 99.6 nM
[1]
  apparent KD of MS2 coat protein: 25.7 nM
Input ligand: none
  apparent KD of MS2 coat protein: 33.8 nM

## UAAUUUAGUGUGAGGAUAUGCUGGUCGAUAGAUCAGCAGAAGGCACAUGAGGAUCACCCAUGUAAUAUAUUAAA [Mat - Exclusion 4 - JL Mod - D35] (puzzle: Brourd's mod of Exclusion 4)
[2]
  apparent KD of MS2 coat protein: 218 nM
[3]
  apparent KD of MS2 coat protein: 62.4 nM
[4]
  apparent KD of MS2 coat protein: 60.2 nM

## UACAAGCUUUUAAGAUCCUACAUGAGGAUCACCCAUGUGCUCGUCUUAUAACGUACUGUGACGAAAGUCACGGUACG [JL TOV1 3.21] (Eterna round: R97, puzzle: Sensor, turn-off variant 1)
Input ligand: FMN 200 uM
  apparent KD of MS2 coat protein: 92.9 nM
Input ligand: none
  apparent KD of MS2 coat protein: 103 nM

## UACAUGAGGAUCACCCAUGUUUUGUCGUGUAUGGUACCCGUCUAGGAUAUCGUGUUAUUGGACCGCGAGAAGGAGAGUAUCAAU [Excl-NG3-LRO03] (Eterna round: R96, puzzle: Exclusion NG 3)
Input ligand: FMN 200 uM
  apparent KD of MS2 coat protein: 26.4 nM
[1]
  apparent KD of MS2 coat protein: 20.2 nM
Input ligand: none
  apparent KD of MS2 coat protein: 33.5 nM

## UACAUGAGGAUCACCCAUGUUUUGUCGUGUAUGGUACCCGUUUAGGAUAUCGUGUUAUUGGACCGCGAGAAGGAGAGUAUCAAU [Excl-NG3-LRO04] (Eterna round: R96, puzzle: Exclusion NG 3)
Input ligand: FMN 200 uM
  apparent KD of MS2 coat protein: 26.5 nM
[1]
  apparent KD of MS2 coat protein: 22.8 nM
Input ligand: none
  apparent KD of MS2 coat protein: 29.4 nM

## UACAUGAGGAUCACCCAUGUUUUGUCGUGUAUGGUAUUUAUCUAGGAUAUCAAUCUAUUAAUUUAUGAGAAGGAGAAUAUUAAU [JMF's solution 52] (Eterna round: R96, puzzle: Exclusion NG 3)
[1]
  apparent KD of MS2 coat protein: 28.8 nM

## UACAUGAGGAUCACCCAUGUUUUGUCGUGUAUGGUAUUUAUCUAGGAUAUCAAUUUAGUAAUUUAUGAGAAGGAGAAUAUUAAU [JMF's solution 73] (Eterna round: R96, puzzle: Exclusion NG 3)
Input ligand: FMN 200 uM
  apparent KD of MS2 coat protein: 37.5 nM
[1]
  apparent KD of MS2 coat protein: 31.4 nM
Input ligand: none
  apparent KD of MS2 coat protein: 40.8 nM

## UACAUGAGGAUCACCCAUGUUUUGUCGUGUAUGGUAUUUAUCUAGGAUAUCAAUUUAUUUAGUUAUGAGAAGGAGAAUAUUAAU [JMF's solution 22] (Eterna round: R96, puzzle: Exclusion NG 3)
Input ligand: FMN 200 uM
  apparent KD of MS2 coat protein: 46.8 nM
[1]
  apparent KD of MS2 coat protein: 27.7 nM
Input ligand: none
  apparent KD of MS2 coat protein: 37.9 nM

## UACAUGAGGAUCACCCAUGUUUUGUCGUGUAUGGUAUUUAUCUAGGAUAUCAUUAUAUUUAGUUAUGAGAAGGAGAAUAUUAAU [JMF's solution 82] (Eterna round: R96, puzzle: Exclusion NG 3)
Input ligand: FMN 200 uM
  apparent KD of MS2 coat protein: 28.1 nM
[1]
  apparent KD of MS2 coat protein: 23.6 nM
Input ligand: none
  apparent KD of MS2 coat protein: 44.6 nM

## UACCGGCGGACCGAAGCUUUUUGCUUGUUUUAUACUACAACAUGAGGAUCACCCAUGUGGUGGUGGUCCGUUGUAGU [JL ViennaUCT Bitein mod 1] (puzzle: Sensor v3, turn-off variant 2)
[2]
  apparent KD of MS2 coat protein: 63.9 nM
[3]
  apparent KD of MS2 coat protein: 16.7 nM
[4]
  apparent KD of MS2 coat protein: 58.6 nM
